Experimental data taken from paper PMC9482650, “Quantitative fragmentomics allow affinity mapping of interactomes” (Nature Communications, 2022).

T1: GRIP1_5, Q9Y3R0
T1 sequence (Q9Y3R0 568-668, limits assumed, looked up): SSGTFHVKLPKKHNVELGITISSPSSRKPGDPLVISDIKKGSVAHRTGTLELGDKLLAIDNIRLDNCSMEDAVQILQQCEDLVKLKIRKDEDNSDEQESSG

T2: APBA1_1, Q02410
T2 sequence (Q02410 651-752, limits assumed, looked up): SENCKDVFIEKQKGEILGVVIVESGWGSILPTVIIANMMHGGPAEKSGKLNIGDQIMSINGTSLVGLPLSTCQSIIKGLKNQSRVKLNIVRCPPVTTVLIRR

T3: MPP7, Q5T2T1
T3 sequence (Q5T2T1 134-230, limits assumed, looked up): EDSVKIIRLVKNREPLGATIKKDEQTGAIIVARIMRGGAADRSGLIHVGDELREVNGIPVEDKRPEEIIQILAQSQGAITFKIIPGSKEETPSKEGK

T4: GRIP1_2, Q9Y3R0
T4 sequence (Q9Y3R0 145-248, limits assumed, looked up): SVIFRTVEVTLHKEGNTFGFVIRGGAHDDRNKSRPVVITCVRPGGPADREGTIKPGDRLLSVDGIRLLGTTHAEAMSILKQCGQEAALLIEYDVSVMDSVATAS

T5: GRIP1_3, Q9Y3R0
T5 sequence (Q9Y3R0 247-346, limits assumed, looked up): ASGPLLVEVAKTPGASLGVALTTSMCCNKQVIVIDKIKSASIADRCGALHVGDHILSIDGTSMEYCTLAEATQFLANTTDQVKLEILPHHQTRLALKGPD

T6: TJP3_3, O95049
T6 sequence (O95049 375-456, limits assumed, looked up): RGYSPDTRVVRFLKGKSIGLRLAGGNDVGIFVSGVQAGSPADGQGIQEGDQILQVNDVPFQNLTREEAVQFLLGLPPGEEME

T7: APBA2_1, Q99767
T7 sequence (Q99767 563-664, limits assumed, looked up): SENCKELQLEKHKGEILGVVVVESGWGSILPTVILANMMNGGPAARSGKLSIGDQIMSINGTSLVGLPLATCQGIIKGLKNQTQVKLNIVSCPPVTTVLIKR

T8: GRIP1_7, Q9Y3R0
T8 sequence (Q9Y3R0 999-1096, limits assumed, looked up): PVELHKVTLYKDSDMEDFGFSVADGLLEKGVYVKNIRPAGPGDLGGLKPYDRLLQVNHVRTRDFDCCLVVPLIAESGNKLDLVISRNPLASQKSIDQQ

T9: SYNJ2BP, P57105
T9 sequence (P57105 8-110, limits assumed, looked up): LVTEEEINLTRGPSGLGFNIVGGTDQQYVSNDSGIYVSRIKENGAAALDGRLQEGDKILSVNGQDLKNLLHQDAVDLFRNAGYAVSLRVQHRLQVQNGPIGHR

B1: TMEM178B, H3BS89 (peptide)
chain: KSRPENGTVC
B2: FZD1, Q9UP38 (peptide)
chain: TNSKQGETTV
B3: SLC1A7, O00341 (peptide)
chain: IQISELETNV
B4: CD226, Q15762 (peptide)
chain: TFSRRPKTRV

Key:
Assay in all cases: holdup assay
Design in all cases: key: below the threshold = too weak to quantify, mostly under pKd 3.1 to 4
Conditions in all cases: plain residues with an end cap or a label only (N-terminal biotin on a linker: ado-ado)
GRIP2_6, Q9C0E4 = target: GRIP2_6, Q9C0E4
Chain of GRIP2_6, Q9C0E4 (Q9C0E4 648-740): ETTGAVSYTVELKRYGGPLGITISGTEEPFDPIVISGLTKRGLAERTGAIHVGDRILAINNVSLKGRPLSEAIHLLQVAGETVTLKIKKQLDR

GRIP2_4, Q9C0E4 = target: GRIP2_4, Q9C0E4
Chain of GRIP2_4, Q9C0E4 (Q9C0E4 446-548): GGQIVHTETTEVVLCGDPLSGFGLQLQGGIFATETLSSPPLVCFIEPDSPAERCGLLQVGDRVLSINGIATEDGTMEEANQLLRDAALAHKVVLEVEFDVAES

MAGI2_4, Q86UL8 = target: MAGI2_4, Q86UL8
Chain of MAGI2_4, Q86UL8 (Q86UL8 772-865): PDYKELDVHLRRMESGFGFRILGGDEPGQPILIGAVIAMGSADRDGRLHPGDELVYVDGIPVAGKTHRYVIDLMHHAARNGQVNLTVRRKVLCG

SCRIB_2, Q14160 = target: SCRIB_2, Q14160
Chain of SCRIB_2, Q14160 (Q14160 857-960): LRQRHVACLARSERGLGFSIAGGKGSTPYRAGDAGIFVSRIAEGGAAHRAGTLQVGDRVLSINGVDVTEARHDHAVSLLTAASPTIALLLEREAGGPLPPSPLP

Inadl_2, Q8NI35 = target: Inadl_2, Q8NI35
Chain of Inadl_2, Q8NI35 (Q8NI35 238-335): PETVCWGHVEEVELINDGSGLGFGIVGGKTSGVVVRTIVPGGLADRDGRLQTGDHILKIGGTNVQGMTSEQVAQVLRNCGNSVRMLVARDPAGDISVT

GRID2IP_1, A4D2P6 = target: GRID2IP_1, A4D2P6
Chain of GRID2IP_1, A4D2P6 (A4D2P6 1-87): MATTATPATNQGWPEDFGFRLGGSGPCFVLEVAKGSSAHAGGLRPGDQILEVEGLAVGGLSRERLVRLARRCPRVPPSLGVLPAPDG

GRIP1_5, Q9Y3R0 = target: T1, GRIP1_5, Q9Y3R0
GRIP2_5, Q9C0E4 = target: GRIP2_5, Q9C0E4
Chain of GRIP2_5, Q9C0E4 (Q9C0E4 544-642): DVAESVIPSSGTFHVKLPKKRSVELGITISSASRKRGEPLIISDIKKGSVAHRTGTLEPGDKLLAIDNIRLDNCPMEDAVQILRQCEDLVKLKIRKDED

APBA1_1, Q02410 = target: T2, APBA1_1, Q02410
SCRIB_1, Q14160 = target: SCRIB_1, Q14160
Chain of SCRIB_1, Q14160 (Q14160 718-814): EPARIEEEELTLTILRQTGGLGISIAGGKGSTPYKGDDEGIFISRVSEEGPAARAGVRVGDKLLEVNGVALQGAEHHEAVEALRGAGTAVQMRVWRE

MPP7, Q5T2T1 = target: T3, MPP7, Q5T2T1
PDZRN4_1, Q6ZMN7 = target: PDZRN4_1, Q6ZMN7
Chain of PDZRN4_1, Q6ZMN7 (Q6ZMN7 213-318): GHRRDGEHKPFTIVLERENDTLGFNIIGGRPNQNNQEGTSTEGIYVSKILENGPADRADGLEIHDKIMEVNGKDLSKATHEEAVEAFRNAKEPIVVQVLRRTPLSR

GRIP1_2, Q9Y3R0 = target: T4, GRIP1_2, Q9Y3R0
HTRA2, O43464 = target: HTRA2, O43464
Chain of HTRA2, O43464 (O43464 355-458): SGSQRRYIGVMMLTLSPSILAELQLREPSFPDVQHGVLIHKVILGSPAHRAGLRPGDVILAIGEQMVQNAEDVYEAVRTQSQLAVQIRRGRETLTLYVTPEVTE

TJP2_1, Q9UDY2 = target: TJP2_1, Q9UDY2
Chain of TJP2_1, Q9UDY2 (Q9UDY2 24-128): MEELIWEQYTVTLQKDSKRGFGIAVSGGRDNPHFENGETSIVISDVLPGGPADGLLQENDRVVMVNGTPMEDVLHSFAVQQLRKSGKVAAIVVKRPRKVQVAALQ

GRIP1_3, Q9Y3R0 = target: T5, GRIP1_3, Q9Y3R0
TJP3_3, O95049 = target: T6, TJP3_3, O95049
SNX27, Q96L92 = target: SNX27, Q96L92
GRIP2_7, Q9C0E4 = target: GRIP2_7, Q9C0E4
Chain of GRIP2_7, Q9C0E4 (Q9C0E4 934-1023): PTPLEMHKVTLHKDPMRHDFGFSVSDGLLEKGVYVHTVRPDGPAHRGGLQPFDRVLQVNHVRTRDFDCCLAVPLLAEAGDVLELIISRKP

MAGI2_2, Q86UL8 = target: MAGI2_2, Q86UL8
Chain of MAGI2_2, Q86UL8 (Q86UL8 410-522): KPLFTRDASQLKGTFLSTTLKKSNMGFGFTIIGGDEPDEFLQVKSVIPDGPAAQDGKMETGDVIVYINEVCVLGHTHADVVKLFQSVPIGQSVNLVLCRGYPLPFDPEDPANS

APBA2_1, Q99767 = target: T7, APBA2_1, Q99767
CASK, O14936 = target: CASK, O14936
Chain of CASK, O14936 (O14936 487-570): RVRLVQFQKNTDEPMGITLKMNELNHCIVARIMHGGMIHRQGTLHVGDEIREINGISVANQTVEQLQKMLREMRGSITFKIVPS

DLG5_1, Q8TDM6 = target: DLG5_1, Q8TDM6
Chain of DLG5_1, Q8TDM6 (Q8TDM6 617-713): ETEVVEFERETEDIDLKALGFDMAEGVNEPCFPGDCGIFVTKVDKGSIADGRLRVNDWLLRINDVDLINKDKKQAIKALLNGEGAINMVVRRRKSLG

FRMPD4, Q14CM0 = target: FRMPD4, Q14CM0
Chain of FRMPD4, Q14CM0 (Q14CM0 67-160): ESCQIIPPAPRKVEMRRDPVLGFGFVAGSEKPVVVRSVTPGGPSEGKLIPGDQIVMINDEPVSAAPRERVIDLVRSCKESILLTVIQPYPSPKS

GRIP1_7, Q9Y3R0 = target: T8, GRIP1_7, Q9Y3R0
SYNJ2BP, P57105 = target: T9, SYNJ2BP, P57105
LAP2, Q96RT1 = target: LAP2, Q96RT1
Chain of LAP2, Q96RT1 (Q96RT1 other isoform, or with tags, fused parts or gaps): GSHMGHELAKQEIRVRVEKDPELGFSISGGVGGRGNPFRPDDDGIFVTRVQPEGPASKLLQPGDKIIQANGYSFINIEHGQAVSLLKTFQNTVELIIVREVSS

GORASP2, Q9H8Y8 = target: GORASP2, Q9H8Y8

Row | Binder | pKd (GRIP2_6, Q9C0E4) | pKd (GRIP2_4, Q9C0E4) | pKd (MAGI2_4, Q86UL8) | pKd (SCRIB_2, Q14160) | pKd (Inadl_2, Q8NI35) | pKd (GRID2IP_1, A4D2P6) | pKd (GRIP1_5, Q9Y3R0) | pKd (GRIP2_5, Q9C0E4) | pKd (APBA1_1, Q02410) | pKd (SCRIB_1, Q14160) | pKd (MPP7, Q5T2T1) | pKd (PDZRN4_1, Q6ZMN7) | pKd (GRIP1_2, Q9Y3R0) | pKd (HTRA2, O43464) | pKd (TJP2_1, Q9UDY2) | pKd (GRIP1_3, Q9Y3R0) | pKd (TJP3_3, O95049) | pKd (SNX27, Q96L92) | pKd (GRIP2_7, Q9C0E4) | pKd (MAGI2_2, Q86UL8) | further results
1 | B1 | below the threshold | below the threshold | 3.74 | below the threshold | below the threshold | below the threshold | below the threshold | below the threshold | below the threshold | 3.78 | below the threshold | below the threshold | below the threshold | below the threshold | below the threshold | below the threshold | below the threshold | 3.58 | below the threshold | below the threshold | pKd (APBA2_1, Q99767): below the threshold; pKd (CASK, O14936): below the threshold; pKd (DLG5_1, Q8TDM6): below the threshold; pKd (FRMPD4, Q14CM0): 3.49; pKd (GRIP1_7, Q9Y3R0): below the threshold; pKd (SYNJ2BP, P57105): 3.93; pKd (LAP2, Q96RT1): below the threshold; pKd (GORASP2, Q9H8Y8): below the threshold
2 | B2 | below the threshold | below the threshold | 4.13 | 4.01 | below the threshold | 3.66 | below the threshold | below the threshold | below the threshold | 4.07 | below the threshold | 4.06 | 3.49 | 3.55 | below the threshold | below the threshold | below the threshold | 5.5 | below the threshold | 4.38 | pKd (APBA2_1, Q99767): below the threshold; pKd (CASK, O14936): below the threshold; pKd (DLG5_1, Q8TDM6): 3.91; pKd (FRMPD4, Q14CM0): below the threshold; pKd (GRIP1_7, Q9Y3R0): below the threshold; pKd (SYNJ2BP, P57105): 4.7; pKd (LAP2, Q96RT1): 3.61; pKd (GORASP2, Q9H8Y8): 3.99
3 | B3 | below the threshold | below the threshold | 3.56 | 4.16 | below the threshold | below the threshold | below the threshold | below the threshold | below the threshold | 4.11 | below the threshold | 4.03 | below the threshold | below the threshold | below the threshold | below the threshold | below the threshold | 5.65 | below the threshold | below the threshold | pKd (APBA2_1, Q99767): below the threshold; pKd (CASK, O14936): below the threshold; pKd (DLG5_1, Q8TDM6): below the threshold; pKd (FRMPD4, Q14CM0): 3.56; pKd (GRIP1_7, Q9Y3R0): below the threshold; pKd (SYNJ2BP, P57105): 4.56; pKd (LAP2, Q96RT1): 4.5; pKd (GORASP2, Q9H8Y8): below the threshold
4 | B4 | below the threshold | 3.54 | below the threshold | 3.54 | below the threshold | below the threshold | below the threshold | below the threshold | below the threshold | below the threshold | below the threshold | below the threshold | 3.57 | below the threshold | 4.25 | below the threshold | below the threshold | 3.88 | below the threshold | 5.31 | pKd (APBA2_1, Q99767): 3.55; pKd (CASK, O14936): below the threshold; pKd (DLG5_1, Q8TDM6): below the threshold; pKd (FRMPD4, Q14CM0): below the threshold; pKd (GRIP1_7, Q9Y3R0): below the threshold; pKd (SYNJ2BP, P57105): below the threshold; pKd (LAP2, Q96RT1): below the threshold; pKd (GORASP2, Q9H8Y8): 3.87
